# Like-named read-outs stand apart in the source and are kept apart here.
# T1: TIAR123 (UniProt Q01085 1-283)
# T1 sequence: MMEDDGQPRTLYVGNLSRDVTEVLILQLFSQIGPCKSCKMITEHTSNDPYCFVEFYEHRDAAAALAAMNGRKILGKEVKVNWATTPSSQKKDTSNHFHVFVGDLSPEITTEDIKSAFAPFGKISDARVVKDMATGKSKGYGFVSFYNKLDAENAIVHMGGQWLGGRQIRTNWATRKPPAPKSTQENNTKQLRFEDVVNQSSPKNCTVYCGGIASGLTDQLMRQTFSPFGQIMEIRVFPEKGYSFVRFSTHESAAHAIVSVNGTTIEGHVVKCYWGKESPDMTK
# T2: TIAR12 (UniProt Q01085 1-181)
# T2 sequence: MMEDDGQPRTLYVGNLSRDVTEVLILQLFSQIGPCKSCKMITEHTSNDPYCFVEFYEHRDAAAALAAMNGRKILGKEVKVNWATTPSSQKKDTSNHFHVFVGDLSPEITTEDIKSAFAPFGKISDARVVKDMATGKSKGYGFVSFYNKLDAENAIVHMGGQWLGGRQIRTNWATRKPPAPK
# Experiments:
# HuR123 = HuR123 (UniProt Q15717 1-306); assay: SPR
# HuR123, sequence (Q15717 1-306): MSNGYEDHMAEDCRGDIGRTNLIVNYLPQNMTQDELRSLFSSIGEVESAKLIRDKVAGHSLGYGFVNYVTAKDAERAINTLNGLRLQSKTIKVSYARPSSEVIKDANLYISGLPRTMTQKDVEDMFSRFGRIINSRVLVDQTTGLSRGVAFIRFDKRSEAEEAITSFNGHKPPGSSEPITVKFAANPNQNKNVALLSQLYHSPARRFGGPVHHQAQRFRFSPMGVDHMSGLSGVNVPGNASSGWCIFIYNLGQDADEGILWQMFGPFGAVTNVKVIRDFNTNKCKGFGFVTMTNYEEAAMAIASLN
# TIAR123 = molecular target: T1, TIAR123; assay: SPR
# HuR12 = HuR12 (UniProt Q15717 18-184); assay: SPR
# HuR12, sequence (Q15717 18-184): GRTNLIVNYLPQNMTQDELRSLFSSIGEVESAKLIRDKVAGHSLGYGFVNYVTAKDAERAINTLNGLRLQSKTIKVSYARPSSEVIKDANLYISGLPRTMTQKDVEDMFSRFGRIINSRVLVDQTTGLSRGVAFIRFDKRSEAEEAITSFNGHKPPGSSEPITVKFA
# TIAR12 [1] = molecular target: T2, TIAR12; assay: SPR
# TIAR12 [2] = molecular target: T2, TIAR12; assay: SPR; remark: listed apart in the source
# TIAR12 [3] = molecular target: T2, TIAR12; assay: size exclusion chromatography
binder,measurement,setting,value
GGGGGGUUUUUUUUUUUUUUUUUGGGGG (ssRNA) [U-rich RNA 28-mer],Kd,HuR123,0.05 ± 0.001 nM
GGGGGGUAUUUAUUAUUUAUUUAGGGGG (ssRNA) [AU-rich RNA 28-mer (TNF-alpha ARE)],Kd,TIAR123,14.1 ± 0.22 nM
same,Kd,HuR12,506 ± 13.1 nM
same,Kd,HuR123,0.2 ± 0.007 nM
same,Kd,TIAR12 [1],42.5 ± 0.63 nM
"UUUUUUUUUUUUUUUUUUUU (ssDNA, all deoxyuridine (2'-deoxy)) [U-rich DNA 20-mer]",Kd,HuR12,20600 ± 1570 nM
same,Kd,TIAR12 [1],21.7 ± 0.38 nM
TTTTTTTTTTTTTTTTTTTT (ssDNA) [T-rich DNA 20-mer],Kd,HuR12,2640 ± 82.3 nM
same,Kd,TIAR12 [2],3.81 ± 0.74 nM
UUUUUUUUUUUUU (ssRNA) [U-rich RNA 13-mer (solution)],binding result,TIAR12 [3],binds
UUUUUUUU (ssRNA) [U-rich RNA 8-mer],Kd,HuR12,4700 ± 116 nM
UUUUUUUUUUUUU (ssRNA) [U-rich RNA 13-mer],Kd,HuR12,195 ± 6.3 nM
UUUUUUUUUUUUUUUUU (ssRNA) [U-rich RNA 17-mer],Kd,HuR12,40 ± 24 nM
